Values of other authors in article PMC6244792.
pKd: −log10 of the molar value. Several values for one entry are separate records, joined by “and”; a condition that tells them apart may be missing. Identical values can stand only once. Like-named read-outs stand apart in the source and are kept apart here.

How the values were obtained:
[1] = target: LHCP L11 peptide (Arabidopsis thaliana); assay: FA
[2] = target: cpSRP54 peptide RRKRp10 RRKRp10 (Arabidopsis thaliana) (UniProt P37107)
[3] = target: LHCP L18 peptide (Arabidopsis thaliana); assay: ITC
[4] = target: LHCP L18 peptide (Arabidopsis thaliana); assay: ITC; remark: listed apart in the source
[5] = target: cpSRP54 (Arabidopsis thaliana) (UniProt P37107); assay: FCS
Sequence of cpSRP54 (Arabidopsis thaliana) (P37107 76-564): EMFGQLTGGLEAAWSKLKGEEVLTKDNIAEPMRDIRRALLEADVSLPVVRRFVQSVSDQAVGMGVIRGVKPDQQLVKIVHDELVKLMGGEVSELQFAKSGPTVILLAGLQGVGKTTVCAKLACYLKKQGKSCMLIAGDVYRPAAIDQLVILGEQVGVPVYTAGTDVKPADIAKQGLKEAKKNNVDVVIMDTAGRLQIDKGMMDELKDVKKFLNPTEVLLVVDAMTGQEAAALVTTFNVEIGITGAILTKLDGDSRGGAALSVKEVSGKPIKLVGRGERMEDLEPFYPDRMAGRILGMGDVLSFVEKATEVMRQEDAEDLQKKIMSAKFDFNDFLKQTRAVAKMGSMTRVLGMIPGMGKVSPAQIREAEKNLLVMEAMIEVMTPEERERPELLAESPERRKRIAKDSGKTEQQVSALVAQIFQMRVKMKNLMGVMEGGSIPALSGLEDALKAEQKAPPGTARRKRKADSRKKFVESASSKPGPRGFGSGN

[6] = target: RRKRp10 (cpSRP54 C-terminal peptide) (Arabidopsis thaliana) (UniProt P37107)
Sequence of RRKRp10 (cpSRP54 C-terminal peptide) (Arabidopsis thaliana) (P37107 whole entry, looked up, tested part not stated): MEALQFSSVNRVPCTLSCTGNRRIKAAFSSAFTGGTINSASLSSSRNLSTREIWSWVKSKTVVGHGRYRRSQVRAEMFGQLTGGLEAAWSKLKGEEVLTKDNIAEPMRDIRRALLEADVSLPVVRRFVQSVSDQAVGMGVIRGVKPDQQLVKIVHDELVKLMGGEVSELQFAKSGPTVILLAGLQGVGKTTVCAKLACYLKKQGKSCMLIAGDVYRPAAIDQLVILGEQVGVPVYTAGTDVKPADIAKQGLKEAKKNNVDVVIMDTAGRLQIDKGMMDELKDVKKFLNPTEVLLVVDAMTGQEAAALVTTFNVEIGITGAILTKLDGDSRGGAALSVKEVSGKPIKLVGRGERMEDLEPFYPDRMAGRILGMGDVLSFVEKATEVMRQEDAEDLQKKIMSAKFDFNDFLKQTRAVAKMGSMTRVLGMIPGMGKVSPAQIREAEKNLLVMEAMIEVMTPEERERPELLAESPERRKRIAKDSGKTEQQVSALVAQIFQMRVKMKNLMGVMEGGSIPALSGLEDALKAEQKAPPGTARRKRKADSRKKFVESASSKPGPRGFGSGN

[7] = target: cpSRP54 (Arabidopsis thaliana) (UniProt P37107); assay: MST
[8] = target: cpSRP54 M domain (Arabidopsis thaliana) (UniProt P37107); assay: SPR
Sequence of cpSRP54 M domain (Arabidopsis thaliana) (P37107 371-564): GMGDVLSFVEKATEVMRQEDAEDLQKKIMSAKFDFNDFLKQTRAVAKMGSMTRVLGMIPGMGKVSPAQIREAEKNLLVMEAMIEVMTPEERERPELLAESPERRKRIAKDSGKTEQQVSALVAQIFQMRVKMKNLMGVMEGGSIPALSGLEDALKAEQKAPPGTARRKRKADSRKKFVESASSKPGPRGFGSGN

[9] = target: Alb3 C-terminus (Arabidopsis thaliana) (UniProt Q8LBP4); assay: FA
Sequence of Alb3 C-terminus (Arabidopsis thaliana) (Q8LBP4 339-462): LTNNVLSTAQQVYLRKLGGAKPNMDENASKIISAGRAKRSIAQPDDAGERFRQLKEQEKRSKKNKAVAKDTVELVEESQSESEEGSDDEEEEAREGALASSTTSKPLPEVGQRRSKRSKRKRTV

[10] = target: LHCP L11 peptide (Arabidopsis thaliana); assay: FA; remark: listed apart in the source
[11] = target: cpFtsY (Arabidopsis thaliana) (UniProt O80842); assay: FRET
Sequence of cpFtsY (Arabidopsis thaliana) (O80842 41-366): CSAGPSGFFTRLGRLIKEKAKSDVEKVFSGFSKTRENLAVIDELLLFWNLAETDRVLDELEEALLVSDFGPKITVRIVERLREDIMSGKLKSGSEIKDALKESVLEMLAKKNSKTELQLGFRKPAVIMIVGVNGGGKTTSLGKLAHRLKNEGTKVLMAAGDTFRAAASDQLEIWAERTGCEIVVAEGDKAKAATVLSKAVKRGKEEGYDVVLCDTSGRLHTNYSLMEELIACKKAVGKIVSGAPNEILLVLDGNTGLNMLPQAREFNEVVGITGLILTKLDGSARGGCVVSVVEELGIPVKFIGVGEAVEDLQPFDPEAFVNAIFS

[12] = target: cpFtsY (Arabidopsis thaliana) (UniProt O80842); assay: FRET; remark: listed apart in the source
[13] = target: cpFtsY (Arabidopsis thaliana) (UniProt O80842); assay: FRET; remark: listed apart in the source

Sequence of cpSRP54 (P37107 76-564): as the sequence (P37107 76-564) above
Sequence of cpSRP54 NG domain (P37107 76-370): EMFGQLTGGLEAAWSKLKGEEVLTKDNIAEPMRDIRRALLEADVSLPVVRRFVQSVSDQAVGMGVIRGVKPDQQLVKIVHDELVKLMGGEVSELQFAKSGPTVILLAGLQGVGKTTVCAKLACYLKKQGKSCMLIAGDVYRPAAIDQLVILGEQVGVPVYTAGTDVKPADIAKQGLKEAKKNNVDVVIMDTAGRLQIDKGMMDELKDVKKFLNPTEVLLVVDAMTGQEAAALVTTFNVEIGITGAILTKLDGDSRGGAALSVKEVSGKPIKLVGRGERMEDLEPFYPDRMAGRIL
Sequence of cpSRP54 peptide RRKRp10 RRKRp10 (Arabidopsis thaliana) (P37107 whole entry, looked up, tested part not stated): as the sequence (P37107 whole entry, looked up, tested part not stated) above

Row | Substance | pKd [1] | pKd [2] | pKd [3] | pKd [4] | pKd [5] | pKd [6] | pKd [7] | pKd [8] | pKd [9] | pKd [10] | pKd [11] | pKd [12] | pKd [13]
1 | cpSRP43 (from UniProt O22265) | 7.66 | 6.41 | 6.97 | 5.93 and 6.49 | 7.02 | 6.41 | 7.30 | 8.60 | 4.74 and 4.92 and 4.82 | 7.96 |  |  | 
2 | cpSRP54 (from UniProt P37107) |  |  |  |  |  |  |  |  |  |  | 6.11 | 5.63 | 6.89
3 | cpSRP54 NG domain (from UniProt P37107) |  |  |  |  |  |  |  |  |  |  |  | 4.92 | 
